Data on three substances can be found in patent publication US20160143256A1.

For this test, the target named is mouse Mc4r (melanocortin 4 receptor), untagged expression construct (mouse) (UniProt P56450). The experiment in a line: cell-based or functional assay.
UniProt P56450, sequence (P56450 whole entry): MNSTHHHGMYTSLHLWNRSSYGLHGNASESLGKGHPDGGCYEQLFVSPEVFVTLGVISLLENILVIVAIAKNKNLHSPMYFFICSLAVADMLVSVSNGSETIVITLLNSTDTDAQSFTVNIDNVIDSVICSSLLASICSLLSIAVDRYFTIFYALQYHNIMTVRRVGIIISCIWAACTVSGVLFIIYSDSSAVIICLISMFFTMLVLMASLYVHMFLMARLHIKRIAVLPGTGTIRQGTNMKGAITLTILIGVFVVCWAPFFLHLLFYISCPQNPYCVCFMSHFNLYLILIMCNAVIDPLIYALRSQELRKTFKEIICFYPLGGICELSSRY

Take “Mrap2delE3 (mouse Mrap2 with exon 3 deleted) (from UniProt D3Z1Q2 1-55)”: the αMSH-induced increase above basal PKA activity (CRELuc, CHO cells co-transfected with Mc4r and Mrap2delE3) is under 2 fold.
“mouse Mrap2 (melanocortin 2 receptor accessory protein 2), untagged expression construct (from UniProt D3Z1Q2 1-207)” gave a αMSH-induced increase above basal PKA activity (CRELuc, CHO cells co-transfected with Mc4r and Mrap2, 0-10 nM αMSH) of 5 fold.
“α-melanocyte stimulating hormone (from UniProt P01189 138-150) (peptide)”: the αMSH-induced increase above basal PKA activity (CRELuc, CHO cells transfected with Mc4r alone) is under 2 fold.
